# Reference: patent US20250025535A1, “A COMPOSITION COMPRISING NANOSIZED ACTIVE PHARMACEUTICAL INGREDIENT” (NANOFORM FINLAND OYJ, priority 2021, published 2025)
# Assay: Sedimentation of insulin suspension in fish oil
# Assay type: physicochemical
# Conditions: 10 mg in 1 ml fish oil, room temperature, t=0, 30 min, 60 min, 24 h; compared with bulk insulin
# Procedure: A: t=0 min; B: t=30 min; C: t=60 min; D: t=24 h.
# Nanosized insulin or bulk insulin (10 mg, Sigma) was added to 1 ml of fish oil, mixed by vortexing and allowed to stand at room temperature.
substance,measurement,value
insulin [nanosized insulin],sedimentation in fish oil as a function of time,significantly slower
